From paper PMC2613223 (International journal of cancer. Journal international du …, 2008) come the findings set out here.

This experiment concerns the target DNA-dependent protein kinase catalytic subunit (human (endogenous in HCT-116), UniProt P78527 1-4128). Put plainly: cell-based or functional assay.

DNA-dependent protein kinase catalytic subunit, sequence (P78527 whole entry): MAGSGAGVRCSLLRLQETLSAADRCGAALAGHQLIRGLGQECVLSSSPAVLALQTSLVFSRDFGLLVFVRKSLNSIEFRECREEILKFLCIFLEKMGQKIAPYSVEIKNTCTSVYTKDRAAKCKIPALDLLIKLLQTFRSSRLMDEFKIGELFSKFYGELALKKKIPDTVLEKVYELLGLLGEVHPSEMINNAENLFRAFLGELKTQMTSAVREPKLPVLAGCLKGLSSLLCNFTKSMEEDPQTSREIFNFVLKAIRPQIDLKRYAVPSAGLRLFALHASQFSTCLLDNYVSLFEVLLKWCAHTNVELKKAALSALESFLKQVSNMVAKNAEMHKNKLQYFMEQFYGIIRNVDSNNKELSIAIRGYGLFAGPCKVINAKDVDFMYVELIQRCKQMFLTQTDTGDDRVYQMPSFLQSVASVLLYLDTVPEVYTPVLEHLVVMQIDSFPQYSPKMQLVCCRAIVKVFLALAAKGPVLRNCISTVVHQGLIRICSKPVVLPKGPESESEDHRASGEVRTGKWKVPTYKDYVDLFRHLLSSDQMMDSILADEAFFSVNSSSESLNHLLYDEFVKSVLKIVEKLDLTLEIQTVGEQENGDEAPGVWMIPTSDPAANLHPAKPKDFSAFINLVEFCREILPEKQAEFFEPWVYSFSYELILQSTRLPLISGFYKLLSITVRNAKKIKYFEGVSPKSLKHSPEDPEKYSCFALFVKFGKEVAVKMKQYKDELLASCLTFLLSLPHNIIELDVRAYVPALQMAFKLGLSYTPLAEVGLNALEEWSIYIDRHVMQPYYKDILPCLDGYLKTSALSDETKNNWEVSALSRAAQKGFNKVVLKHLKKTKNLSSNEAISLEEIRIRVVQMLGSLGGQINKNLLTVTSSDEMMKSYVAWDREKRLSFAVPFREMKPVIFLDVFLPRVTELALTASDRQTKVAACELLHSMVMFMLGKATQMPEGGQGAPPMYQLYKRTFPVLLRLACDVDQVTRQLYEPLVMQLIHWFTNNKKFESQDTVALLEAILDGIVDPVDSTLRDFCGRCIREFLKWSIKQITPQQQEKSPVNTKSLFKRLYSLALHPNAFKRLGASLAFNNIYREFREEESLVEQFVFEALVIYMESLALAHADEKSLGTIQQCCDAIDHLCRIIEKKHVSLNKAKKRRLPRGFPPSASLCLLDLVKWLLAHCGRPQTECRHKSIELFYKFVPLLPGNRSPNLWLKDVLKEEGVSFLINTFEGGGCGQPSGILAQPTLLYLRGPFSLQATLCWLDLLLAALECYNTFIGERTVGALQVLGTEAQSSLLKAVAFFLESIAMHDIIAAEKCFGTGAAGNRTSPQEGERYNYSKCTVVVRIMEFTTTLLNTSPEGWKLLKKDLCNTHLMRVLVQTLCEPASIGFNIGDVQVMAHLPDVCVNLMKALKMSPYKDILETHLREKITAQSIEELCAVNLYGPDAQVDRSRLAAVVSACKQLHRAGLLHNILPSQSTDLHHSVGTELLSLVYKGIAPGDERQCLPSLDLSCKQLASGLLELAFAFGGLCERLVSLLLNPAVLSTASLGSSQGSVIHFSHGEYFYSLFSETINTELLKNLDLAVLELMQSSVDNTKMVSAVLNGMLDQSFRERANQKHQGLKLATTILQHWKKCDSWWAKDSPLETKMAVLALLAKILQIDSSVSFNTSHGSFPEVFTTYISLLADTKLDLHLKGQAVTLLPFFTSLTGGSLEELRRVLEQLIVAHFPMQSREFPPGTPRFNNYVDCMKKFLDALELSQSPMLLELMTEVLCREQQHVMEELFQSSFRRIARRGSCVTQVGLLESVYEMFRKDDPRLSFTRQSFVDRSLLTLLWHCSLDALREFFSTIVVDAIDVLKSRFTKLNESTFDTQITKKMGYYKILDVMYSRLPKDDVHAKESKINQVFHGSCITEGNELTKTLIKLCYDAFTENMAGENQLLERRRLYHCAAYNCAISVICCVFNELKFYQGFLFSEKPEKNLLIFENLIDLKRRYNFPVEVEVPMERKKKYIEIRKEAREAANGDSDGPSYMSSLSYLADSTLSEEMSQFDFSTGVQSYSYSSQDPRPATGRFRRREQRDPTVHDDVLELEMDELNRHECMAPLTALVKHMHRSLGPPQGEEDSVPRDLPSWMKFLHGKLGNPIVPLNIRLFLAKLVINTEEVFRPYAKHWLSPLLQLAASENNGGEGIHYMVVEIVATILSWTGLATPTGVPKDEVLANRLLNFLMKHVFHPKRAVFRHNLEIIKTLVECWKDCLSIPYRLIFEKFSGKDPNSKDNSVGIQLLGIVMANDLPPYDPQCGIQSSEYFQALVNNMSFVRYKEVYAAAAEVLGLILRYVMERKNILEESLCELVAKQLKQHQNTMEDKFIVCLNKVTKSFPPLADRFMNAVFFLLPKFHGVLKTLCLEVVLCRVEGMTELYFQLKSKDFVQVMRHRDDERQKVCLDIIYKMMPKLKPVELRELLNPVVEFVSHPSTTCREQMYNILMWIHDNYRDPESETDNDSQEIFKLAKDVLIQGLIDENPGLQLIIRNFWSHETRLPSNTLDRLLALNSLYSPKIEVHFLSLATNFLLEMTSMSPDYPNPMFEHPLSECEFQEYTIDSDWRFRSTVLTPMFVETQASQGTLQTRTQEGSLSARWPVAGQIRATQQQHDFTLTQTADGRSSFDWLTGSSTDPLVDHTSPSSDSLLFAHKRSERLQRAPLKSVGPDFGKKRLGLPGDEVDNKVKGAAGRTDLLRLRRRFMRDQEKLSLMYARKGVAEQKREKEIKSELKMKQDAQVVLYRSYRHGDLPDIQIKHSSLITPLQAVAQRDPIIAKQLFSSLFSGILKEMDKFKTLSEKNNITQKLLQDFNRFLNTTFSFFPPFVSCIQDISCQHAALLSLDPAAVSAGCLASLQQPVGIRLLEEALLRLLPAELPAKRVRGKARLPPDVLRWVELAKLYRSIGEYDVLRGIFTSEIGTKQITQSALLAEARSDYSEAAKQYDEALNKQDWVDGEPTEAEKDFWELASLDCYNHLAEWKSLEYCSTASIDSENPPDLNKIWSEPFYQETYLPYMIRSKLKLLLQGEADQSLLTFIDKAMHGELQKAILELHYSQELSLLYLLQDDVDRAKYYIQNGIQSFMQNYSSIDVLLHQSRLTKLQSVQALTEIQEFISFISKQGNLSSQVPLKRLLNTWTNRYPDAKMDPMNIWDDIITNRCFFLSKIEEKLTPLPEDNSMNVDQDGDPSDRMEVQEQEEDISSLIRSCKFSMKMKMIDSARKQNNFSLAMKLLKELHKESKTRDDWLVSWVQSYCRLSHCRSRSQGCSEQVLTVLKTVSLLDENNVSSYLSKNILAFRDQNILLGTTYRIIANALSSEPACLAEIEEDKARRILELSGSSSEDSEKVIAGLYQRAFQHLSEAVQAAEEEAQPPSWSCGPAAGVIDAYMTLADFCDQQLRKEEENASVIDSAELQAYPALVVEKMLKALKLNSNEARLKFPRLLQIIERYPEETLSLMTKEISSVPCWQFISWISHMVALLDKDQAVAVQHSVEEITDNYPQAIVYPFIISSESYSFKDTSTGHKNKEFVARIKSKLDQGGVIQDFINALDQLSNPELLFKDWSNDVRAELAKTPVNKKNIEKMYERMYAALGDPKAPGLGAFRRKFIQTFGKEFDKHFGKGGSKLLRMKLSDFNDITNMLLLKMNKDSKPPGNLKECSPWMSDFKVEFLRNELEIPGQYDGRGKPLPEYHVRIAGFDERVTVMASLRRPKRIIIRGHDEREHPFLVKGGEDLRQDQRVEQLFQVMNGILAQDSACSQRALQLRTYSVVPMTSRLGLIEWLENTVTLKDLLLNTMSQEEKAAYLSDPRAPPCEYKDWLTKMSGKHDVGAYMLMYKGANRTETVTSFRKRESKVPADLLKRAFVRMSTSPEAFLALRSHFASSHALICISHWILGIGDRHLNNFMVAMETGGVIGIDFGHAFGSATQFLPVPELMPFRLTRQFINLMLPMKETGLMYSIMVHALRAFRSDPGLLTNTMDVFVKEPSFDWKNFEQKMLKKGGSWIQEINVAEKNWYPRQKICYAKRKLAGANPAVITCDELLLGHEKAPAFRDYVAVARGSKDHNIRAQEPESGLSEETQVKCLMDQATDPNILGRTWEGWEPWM

B1: 15-lipoxygenase-1 (enzyme, human, UniProt P16050 1-662, looked up)
chain: MGLYRIRVSTGASLYAGSNNQVQLWLVGQHGEAALGKRLWPARGKETELKVEVPEYLGPLLFVKLRKRHLLKDDAWFCNWISVQGPGAGDEVRFPCYRWVEGNGVLSLPEGTGRTVGEDPQGLFQKHREEELEERRKLYRWGNWKDGLILNMAGAKLYDLPVDERFLEDKRVDFEVSLAKGLADLAIKDSLNVLTCWKDLDDFNRIFWCGQSKLAERVRDSWKEDALFGYQFLNGANPVVLRRSAHLPARLVFPPGMEELQAQLEKELEGGTLFEADFSLLDGIKANVILCSQQHLAAPLVMLKLQPDGKLLPMVIQLQLPRTGSPPPPLFLPTDPPMAWLLAKCWVRSSDFQLHELQSHLLRGHLMAEVIVVATMRCLPSIHPIFKLIIPHLRYTLEINVRARTGLVSDMGIFDQIMSTGGGGHVQLLKQAGAFLTYSSFCPPDDLADRGLLGVKSSFYAQDALRLWEIIYRYVEGIVSLHYKTDVAVKDDPELQTWCREITEIGLQGAQDRGFPVSLQARDQVCHFVTMCIFTCTGQHASVHLGQLDWYSWVPNAPCTMRLPPPTTKDATLETVMATLPNFHQASLQMSITWQLGRRQPVMVAVGQHEEEYFSGPEPKAVLKKFREELAALDKEIEIRNAKLDMPYEYLRPSVVENSVAI
Turning to B1, the “DNA-PK kinase activity in 15-LOX-1 expressing whole cell extract lysates” value was 1.6 fold.
